Results published in the supplement of paper PMC5998384.

Tests used:
[1] = system: HeLa Kyoto; experiment: solubility in G1/S (NP-40 vs SDS abundance) (log2 ratio); higher = more soluble; conditions: cell cycle stage: G1/S
[2] = system: HeLa Kyoto; experiment: melting temperature (median over replicates), in situ; higher = more thermally stable
[3] = system: HeLa Kyoto; experiment: solubility change mitosis vs G1/S (difference of NP-40 vs SDS log2 ratios) (log2 ratio difference); higher = more soluble in mitosis
[4] = system: HeLa Kyoto; experiment: thermal stability score vs G1/S (z-score of summed log2 fold changes over temperatures); higher = more thermally stable than in G1/S
[5] = cell cycle stage: early G1 (4.5 h after nocodazole release)
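Wherever melting temperature (median over replicates), in situ is given: HeLa Kyoto cells synchronized by double thymidine or nocodazole block, proteins quantified by TMT10plex mass spectrometry, three independent biological replicates.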
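Wherever solubility change mitosis vs G1/S (difference of NP-40 vs SDS log2 ratios) is given: synchronized HeLa Kyoto cells (double thymidine block for G1/S, nocodazole release for mitosis), protein amounts in NP-40 versus SDS lysates quantified by mass spectrometry, three biological replicates.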
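Wherever solubility in G1/S (NP-40 vs SDS abundance) is given: HeLa Kyoto cells arrested at G1/S by double thymidine block, proteins quantified by TMT10plex mass spectrometry in mild NP-40 versus SDS extracts, three biological replicates.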
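Wherever thermal stability score vs G1/S (z-score of summed log2 fold changes over temperatures) is given: synchronized HeLa Kyoto cells, proteins quantified by TMT10plex mass spectrometry, three biological replicates, mitosis taken 0.5 h after nocodazole release, G1/S directly after double thymidine block.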

Chain of DCK (chain, as listed by the source): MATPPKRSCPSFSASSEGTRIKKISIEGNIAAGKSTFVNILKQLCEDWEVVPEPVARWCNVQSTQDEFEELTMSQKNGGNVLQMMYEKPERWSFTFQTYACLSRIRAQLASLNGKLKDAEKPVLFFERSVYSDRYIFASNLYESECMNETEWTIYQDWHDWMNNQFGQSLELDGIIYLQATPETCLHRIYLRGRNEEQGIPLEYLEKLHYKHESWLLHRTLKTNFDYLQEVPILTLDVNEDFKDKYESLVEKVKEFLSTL

| Substance | solubility in G1/S (log2) [1] | melting temperature ([2]; cell cycle stage: G1/S) [°C] | melting temperature ([2]; cell cycle stage: mitosis) [°C] | solubility change mitosis (log2) [3] | thermal stability score [4, 5] | thermal stability score ([4]; cell cycle stage: mitosis) |
| --- | --- | --- | --- | --- | --- | --- |
| MSKRLRSSEVCADCSGPDPSWASVNRGTFLCDECCSVHRSLGRHISQVRHLKHTPWPPTLLQMVETLYNNGANSIWEHSLLDPASIMSGRRKANPQDKVHPNKAEFIRAKYQMLAFVHRLPCRDDDSVTAKDLSKQLHSSVRTGNLETCLRLLSLGAQANFFHPEKGNTPLHVASKAGQILQAELLAVYGADPGTQDSSGKTPVDYARQGGHHELAERLVEIQYELTDRLAFYLCGRKPDHKNGQHFIIPQMADSSLDLSELAKAAKKKLQSLSNHLFEELAMDVYDEVDRRETDAVWLATQNHSALVTETTVVPFLPVNPEYSSTRNQGRQKLARFNAHEFATLVIDILSDAKRRQQGSSLSGSKDNVELILKTINNQHSVESQDNDQPDYDSVASDEDTDLETTASKTNRQKSLDSDLSDGPVTVQEFMEVKNALVASEAKIQQLMKVNNNLSDELRIMQKKLQTLQSENSNLRKQATTNVYQVQTGSEYTDTSNHSSLKRRPSARGSRPMSMYETGSGQKPYLPMGEASRPEESRMRLQPFPAHIGRSALVTSSSSLPSFPSTLSWSRDESARRASRLEKQNSTPESDYDNTPNDMEPDGMGSSRKGRQRSMVWPGDGLVPDTAEPHVAPSPTLPSTEDVIRKTEQITKNIQELLRAAQENKHDSYIPCSERIHVAVTEMAALFPKKPKSDMVRTSLRLLTSSAYRLQSECKKTLPGDPGSPTDVQLVTQQVIQCAYDIAKAAKQLVTITTKENNN [GIT2] | 0.317 | 48 | 48.9 | -0.13 | 1.06 | 2.68 |
| MMADGAAAGAGGSPSLRELRARMVAAANEIAKERRKQDVVNRVATHSSNIRSTFKPVIDGSMLKNDIKQRLARERREEKRRQQDANKETQLLEKERKTKLQYEKQMEERQRKLKERKEKEEQRRIAAEEKRHQKDEAQKEKFTAILYRTLERRRLADDYQQKRWSWGGSAMANSESKTANKRSASTEKLEQGTSALIRQMPLSSAGLQNSVAKRKTDKERSSSLNRRDSNLHSSTDKEQAERKPRVTGVTNYVMQYVTVPLRKCTSDELRAVMFPMSTMKIPPQTKVEESPLEKVETPPKASVDAPPQVNVEVFCNTSMEASPKAGVGMAPEVSTDSFPVVSVDVSPVVSTYDSEMSMDASPELSIEALPKVDLETVPKVSIVASPEASLEAPPEVSLEALPEVSVEAAPEGSLEAPPKGSAEVAPKESVKGSPKESMEASPEAMVKASPKTSLEASMEASPKAKARDAPKKSEMDKQALIPIAKKRLSSYTECYKWSSSPENACGLPSPISTNRQIQKNCPPSPLPLISKQSPQTSFPYKIMPIQHTLSVQSASSTVKKKKETVSKTTNRCEALSQRHMIYEESGNKSTAGIMNAEAATKILTELRRLAREQREKEEEERQREEMQQRVIKKSKDMAKEAVGGQAEDHLKLKDGQQQNETKKKKGWLDQEDQEAPLQKGDAKIKAQEEADKRKKEHERIMLQNLQERLERKKRIEEIMKRTRKTDVNASKVTETSSHDIYEEAEADNEESDKDSLNEMFPSAILNGTGSPTKFKMPFNNAKKMTHKLVFLEDGTSQVRKEPKTYFNGDLKNFRQKSMKDTSIQEVVSRPSSKRMTSHTTKTRKADETNTTSRSSAQTKSEGFHDILPKSSDTFRQ [MAP7D3] | -0.211 | 50.4 | 52.8 | 0.189 | 2.41 | 6.63 |
| MKGSRIELGDVTPHNIKQLKRLNQVIFPVSYNDKFYKDVLEVGELAKLAYFNDIAVGAVCCRVDHSQNQKRLYIMTLGCLAPYRRLGIGTKMLNHVLNICEKDGTFDNIYLHVQISNESAIDFYRKFGFEIIETKKNYYKRIEPADAHVLQKNLKVPSGQNADVQKTDN [NAA50] | 0.325 | 53.1 | 53.8 | -0.0822 | 0.726 | -0.495 |
| MAAACRSVKGLVAVITGGASGLGLATAERLVGQGASAVLLDLPNSGGEAQAKKLGNNCVFAPADVTSEKDVQTALALAKGKFGRVDVAVNCAGIAVASKTYNLKKGQTHTLEDFQRVLDVNLMGTFNVIRLVAGEMGQNEPDQGGQRGVIINTASVAAFEGQVGQAAYSASKGGIVGMTLPIARDLAPIGIRVMTIAPGLFGTPLLTSLPEKVCNFLASQVPFPSRLGDPAEYAHLVQAIIENPFLNGEVIRLDGAIRMQP [HSD17B10] | 0.254 | 54.5 | 54.4 | -0.041 | 0.0147 | -4.18 |
| DCK | 0.17 | 53.9 | 53.1 | -0.103 | 2.05 | 2.37 |
| MAMAPSPSLVQVYTSPAAVAVWEWQDGLGTWHPYSATVCSFIEQQFVQQKGQRFGLGSLAHSIPLGQADPSLAPYIIDLPSWTQFRQDTGTMRAVRRHLFPQHSAPGRGVVWEWLSDDGSWTAYEASVCDYLEQQVARGNQLVDLAPLGYNYTVNYTTHTQTNKTSSFCRSVRRQAGPPYPVTTIIAPPGHTGVACSCHQCLSGSRTGPVSGRYRHSMTNLPAYPVPQHPPHRTASVFGTHQAFAPYNKPSLSGARSAPRLNTTNAWGAAPPSLGSQPLYRSSLSHLGPQHLPPGSSTSGAVSASLPSGPSSSPGSVPATVPMQMPKPSRVQQALAGMTSVLMSAIGLPVCLSRAPQPTSPPASRLASKSHGSVKRLRKMSVKGATPKPEPEPEQVIKNYTEELKVPPDEDCIICMEKLSTASGYSDVTDSKAIGSLAVGHLTKCSHAFHLLCLLAMYCNGNKDGSLQCPSCKTIYGEKTGTQPQGKMEVLRFQMSLPGHEDCGTILIVYSIPHGIQGPEHPNPGKPFTARGFPRQCYLPDNAQGRKVLELLKVAWKRRLIFTVGTSSTTGETDTVVWNEIHHKTEMDRNITGHGYPDPNYLQNVLAELAAQGVTEDCLEQQ [DTX2] | 0.0228 | – | 47.4 | -0.253 | 0.67 | 0.769 |
| MATTGTPTADRGDAAATDDPAARFQVQKHSWDGLRSIIHGSRKYSGLIVNKAPHDFQFVQKTDESGPHSHRLYYLGMPYGSRENSLLYSEIPKKVRKEALLLLSWKQMLDHFQATPHHGVYSREEELLRERKRLGVFGITSYDFHSESGLFLFQASNSLFHCRDGGKNGFMVSPMKPLEIKTQCSGPRMDPKICPADPAFFSFINNSDLWVANIETGEERRLTFCHQGLSNVLDDPKSAGVATFVIQEEFDRFTGYWWCPTASWEGSEGLKTLRILYEEVDESEVEVIHVPSPALEERKTDSYRYPRTGSKNPKIALKLAEFQTDSQGKIVSTQEKELVQPFSSLFPKVEYIARAGWTRDGKYAWAMFLDRPQQWLQLVLLPPALFIPSTENEEQRLASARAVPRNVQPYVVYEEVTNVWINVHDIFYPFPQSEGEDELCFLRANECKTGFCHLYKVTAVLKSQGYDWSEPFSPGEDEFKCPIKEEIALTSGEWEVLARHGSKIWVNEETKLVYFQGTKDTPLEHHLYVVSYEAAGEIVRLTTPGFSHSCSMSQNFDMFVSHYSSVSTPPCVHVYKLSGPDDDPLHKQPRFWASMMEAASCPPDYVPPEIFHFHTRSDVRLYGMIYKPHALQPGKKHPTVLFVYGGPQVQLVNNSFKGIKYLRLNTLASLGYAVVVIDGRGSCQRGLRFEGALKNQMGQVEIEDQVEGLQFVAEKYGFIDLSRVAIHGWSYGGFLSLMGLIHKPQVFKVAIAGAPVTVWMAYDTGYTERYMDVPENNQHGYEAGSVALHVEKLPNEPNRLLILHGFLDENVHFFHTNFLVSQLIRAGKPYQLQIYPNERHSIRCPESGEHYEVTLLHFLQEYL [DPP9] | -0.0578 | 51.3 | 51.1 | -0.171 | -0.344 | -0.63 |
| PDE4DIP | 0.0173 | 51.6 | – | 0.0943 | 0.534 | 0.401 |
| MPTQRDSSTMSHTVAGGGSGDHSHQVRVKAYYRGDIMITHFEPSISFEGLCNEVRDMCSFDNEQLFTMKWIDEEGDPCTVSSQLELEEAFRLYELNKDSELLIHVFPCVPERPGMPCPGEDKSIYRRGARRWRKLYCANGHTFQAKRFNRRAHCAICTDRIWGLGRQGYKCINCKLLVHKKCHKLVTIECGRHSLPQEPVMPMDQSSMHSDHAQTVIPYNPSSHESLDQVGEEKEAMNTRESGKASSSLGLQDFDLLRVIGRGSYAKVLLVRLKKTDRIYAMKVVKKELVNDDEDIDWVQTEKHVFEQASNHPFLVGLHSCFQTESRLFFVIEYVNGGDLMFHMQRQRKLPEEHARFYSAEISLALNYLHERGIIYRDLKLDNVLLDSEGHIKLTDYGMCKEGLRPGDTTSTFCGTPNYIAPEILRGEDYGFSVDWWALGVLMFEMMAGRSPFDIVGSSDNPDQNTEDYLFQVILEKQIRIPRSLSVKAASVLKSFLNKDPKERLGCHPQTGFADIQGHPFFRNVDWDMMEQKQVVPPFKPNISGEFGLDNFDSQFTNEPVQLTPDDDDIVRKIDQSEFEGFEYINPLLMSAEECV [PRKCI] | -0.127 | 50.7 | 51 | -0.129 | 0.877 | 0.84 |
| MEVKGKKQFTGKSTKTAQEKNRFHKNSDSGSSKTFPTRKVAKEGGPKVTSRNFEKSITKLGKKGVKQFKNKQQGDKSPKNKFQPANKFNKKRKFQPDGRSDESAAKKPKWDDFKKKKKELKQSRQLSDKTNYDIVVRAKQMWEILRRKDCDKEKRVKLMSDLQKLIQGKIKTIAFAHDSTRVIQCYIQYGNEEQRKQAFEELRDDLVELSKAKYSRNIVKKFLMYGSKPQIAEIIRSFKGHVRKMLRHAEASAIVEYAYNDKAILEQRNMLTEELYGNTFQLYKSADHRTLDKVLEVQPEKLELIMDEMKQILTPMAQKEAVIKHSLVHKVFLDFFTYAPPKLRSEMIEAIREAVVYLAHTHDGARVAMHCLWHGTPKDRKVIVKTMKTYVEKVANGQYSHLVLLAAFDCIDDTKLVKQIIISEIISSLPSIVNDKYGRKVLLYLLSPRDPAHTVREIIEVLQKGDGNAHSKKDTEVRRRELLESISPALLSYLQEHAQEVVLDKSACVLVSDILGSATGDVQPTMNAIASLAATGLHPGGKDGELHIAEHPAGHLVLKWLIEQDKKMKENGREGCFAKTLVEHVGMKNLKSWASVNRGAIILSSLLQSCDLEVANKVKAALKSLIPTLEKTKSTSKGIEILLEKLST [PUM3] | -1.05 | 46.6 | 50 | 0.758 | 1.46 | 3.65 |
| MGLLSDPVRRRALARLVLRLNAPLCVLSYVAGIAWFLALVFPPLTQRTYMSENAMGSTMVEEQFAGGDRARAFARDFAAHRKKSGALPVAWLERTMRSVGLEVYTQSFSRKLPFPDETHERYMVSGTNVYGILRAPRAASTESLVLTVPCGSDSTNSQAVGLLLALAAHFRGQIYWAKDIVFLVTEHDLLGTEAWLEAYHDVNVTGMQSSPLQGRAGAIQAAVALELSSDVVTSLDVAVEGLNGQLPNLDLLNLFQTFCQKGGLLCTLQGKLQPEDWTSLDGPLQGLQTLLLMVLRQASGRPHGSHGLFLRYRVEALTLRGINSFRQYKYDLVAVGKALEGMFRKLNHLLERLHQSFFLYLLPGLSRFVSIGLYMPAVGFLLLVLGLKALELWMQLHEAGMGLEEPGGAPGPSVPLPPSQGVGLASLVAPLLISQAMGLALYVLPVLGQHVATQHFPVAEAEAVVLTLLAIYAAGLALPHNTHRVVSTQAPDRGWMALKLVALIYLALQLGCIALTNFSLGFLLATTMVPTAALAKPHGPRTLYAALLVLTSPAATLLGSLFLWRELQEAPLSLAEGWQLFLAALAQGVLEHHTYGALLFPLLSLGLYPCWLLFWNVLFWK [GPAA1] | -0.07 | 53.7 | 53.4 | -0.232 | 0.0135 | 0.0397 |
| MGLLAFLKTQFVLHLLVGFVFVVSGLVINFVQLCTLALWPVSKQLYRRLNCRLAYSLWSQLVMLLEWWSCTECTLFTDQATVERFGKEHAVIILNHNFEIDFLCGWTMCERFGVLGSSKVLAKKELLYVPLIGWTWYFLEIVFCKRKWEEDRDTVVEGLRRLSDYPEYMWFLLYCEGTRFTETKHRVSMEVAAAKGLPVLKYHLLPRTKGFTTAVKCLRGTVAAVYDVTLNFRGNKNPSLLGILYGKKYEADMCVRRFPLEDIPLDEKEAAQWLHKLYQEKDALQEIYNQKGMFPGEQFKPARRPWTLLNFLSWATILLSPLFSFVLGVFASGSPLLILTFLGFVGAASFGVRRLIGVTEIEKGSSYGNQEFKKKE [AGPAT3] | -0.0836 | 52.2 | 52.4 | -0.0117 | -0.691 | -1.45 |
